Data published in US7893027B2, “Treatment of ocular wounds and ulcers” (The Board of Regents of the University of Oklahoma, priority 2002, dated 2011).

Tests used:
PECAM-1 (CD31) = assay: Flow cytometry of PECAM-1 expression on HCEC; type: cell-based, human; conditions: CAP37 1 μg/ml
Experimental: Flow cytometry was used to assess the upregulation of PECAM-1 (CD31), and the integrin molecules β1 (CD29), β2 (CD18), β3 (CD61), β4 (CD104), α1 (CD49a), α2 (CD49b), α3 (CD49c), α4 (CD 49d), and αv (CD51). Human corneal epithelial cells were cultured as above and treated with CAP37 (0-2000 ng/ml) for 0-72 hr. A corresponding culture was left untreated at each time point. Following treatment with CAP37, cells were detached with 0.25% trypsin in 1 mM EDTA (pH 7.4, FISHER SCIENTIFIC, Pittsburgh, Pa.), washed twice in PBS and fixed with 0.125% paraformaldehyde (J.T. BAKER, Phillipsburg, N.J.) overnight at 4° C. The cells were washed in PBS and then incubated in 0.5% normal goat serum and 0.5% bovine serum albumin (BSA) in PBS for 30 min to block non-specific binding sites. Cells were incubated in the primary antibody (at concentrations described below) at 4° C. for 1 hr followed by the secondary antibody (FITC-goat anti-mouse IgG, PHARMINGEN, San Diego, Calif.) at 0.5 μg/10^6 cells and incubated at 4° C. for 30 min. The isotype control for these studies was FITC-labeled mouse isotype IgG1 (PHARMINGEN). The cells were analyzed by flow cytometry (FACS Calibur, BECTON DICKINSON, San Jose, Calif.). At least ten thousand cells were analyzed for each sample. […]

[1] = tested on: human corneal epithelial cells (HCEC); assay: CyQUANT cell proliferation assay; type: cell-based; conditions: for Increase in cell numbers: 72 hr post treatment
Experimental: Human corneal epithelial cells were seeded onto 48 well tissue culture plates (7.5×10^3 cells/well, FALCON, Franklin Lakes, N.J.) and cultured as described above.
Cultures were changed to growth factor-free basic medium overnight and treated with various concentrations of CAP37 (0-2000 ng/ml) for 48-72 hrs. Recombinant human Epidermal Growth Factor (EGF 50 ng/ml, BECTON DICKINSON, Bedford, Mass.) and recombinant human Hepatocyte Growth Factor/Scatter Factor (HGF/SF 20 ng/ml, BECTON DICKINSON) were used as positive controls and growth factor-free basic medium as negative control. The medium was aspirated and new medium with CAP37 or growth factors were added to the cultures every 24 hr. The CyQUANT Cell Proliferation Assay Kit (MOLECULAR PROBES, Eugene, Oreg.) was used to quantify cell proliferation exactly according to the manufacturer's specifications. Briefly, cells were frozen, thawed, and lysed with the addition of the lysis buffer containing the green fluorescent dye, CyQUANT GR which binds to nucleic acids and the fluorescence levels read on fluorescent micro plate reader (fmax MOLECULAR DEVICES, Sunnyvale, Calif.) with filters for 485 nm excitation and 538 nm emission.

B1: CAP37: Cationic Antimicrobial Protein of Mr 37 kDa; recombinant protein from human 293 cells, identical to native PMN-derived CAP37 (SEQ ID NO:1) (protein, listed as Homo sapiens)
chain: IVGGRKARPRQFPFLASIQNQGRHFCGGALIHARFVMTAASCFQSQNPGVSTVVLGAYDLRRRERQSRQTFSISSMSENGYDPQQNLNDLMLLQLDREANLTSSVTILPLPLQNATVEAGTRCQVAGWGSQRSGGRLSRFPRFVNVTVTPEDQCRPNNVCTGVLTRRGGICNGDGGTPLVCEGLAHGVASFSLGPCGRGPDFFTRVALFRDWIDGVLNNPGP
PECAM-1 protein expression (PECAM-1 (CD31); 24 hr): waned
PECAM-1 protein expression (PECAM-1 (CD31); at 6 hr, maintained through 12 hr): Significant protein expression
Levels of proliferation relative to positive controls ([1]; 1000-2000 ng/ml, 48 hours): comparable to those obtained with the two positive controls, EGF and HGF
Proliferation of HCEC ([1]; 48 hours post treatment, versus culture medium alone): significant increase in proliferation over basal levels
Increase in cell numbers ([1]; 1000 ng/ml): approximately two
Increase in cell numbers ([1]; 2000 ng/ml): three
